In US20100261660A1 (published 2010):

target: T1, Soluble CD28-Ig (extracellular domain of human CD28 fused to the Fc portion of human IgG1) (human, UniProt P10747 19-152, biotin-conjugated (NHS-biotin) in the FACS binding assays); test: competitive FACS on transfected cells, biotin-sCD28-Ig with FITC-sCTLA-4-Ig; grade 0-2 of CD28/CTLA-4 ratio vs WT hB7-1
T1 construct: extracellular domain; bought from R&D Systems; also called sCD28-Ig; CD28-Ig Fc; not shown: Fc portion of human IgG1

Binding Score | Binder
2 | Round 2 CD28D12-5 (ligand) ITPKSVTKRVKETVMLSCDYSTSTEELTSLRIYWQKDSKMVLAILPGKVQVWPEYKNRTITDMNDNPRIVILALRLSDSGTYTCVIQKPVLKGAYKLEHLASVRLMIRADFPVPSITDIGHPAPNVKRIRCSASGDFPEPRLAWMEDGEELNAVNTTVLDTELYSVSSELDFNVTNNHSIVCLIKYGELSVSQIFPWSKPKQEPPIDQLPFWVIIPVSGALVLTAVVLYCLACRHVARWKRTRRNEETVGTERLSPIYLGSAQPSG
2 | Round 2 CD28D11-1 (ligand) ITPKSVTKRVKETVMLSCDYNTSTEELTSLRIYWQKDSKMVLAILPGKVQVWPEYKNRTITDMNDNPRIVILALRLSDSGTYTCVVQKNENGSFRREHLTSVTLSIRADFPVPSITDIGHPAPNVKRIRCSASGDFPEPRLAWMEDGEELNAVNTTVDQDLDTELYSVSSELDFNVTNNHSIVCLIKYGELSVSQIFPWSKPKQEPPIDQLPFWVIILVSGALVLTAVVLYCLACRHVARWKRTRRNEETVGTERLSPIYLGSAQSSG
1 | Round 2 CD28C7-3 (ligand) ITPKSVTKRVKETVMLSCDYSTSTEELTSLRIYWQKDSKMVLAILPGKVQVWPEYKNRTITDMNDNPRIVILALRLSDSGTYTCVIQKPDLKGAYKLEHLTSVRLMIRADFPVPSITDIGHPAPNVKRIRCSASGDFPEPRLAWMEDGEELNAVNTTVDQDLDTELYSVSSELDFNVTNNHSIVCLIKYGELSVSQIFPWSKPKQEPPIDQLPFWVIIPVSGALVLTAVVLYCLACRHVARWKRTRRNEETVGTERLSPIYLGSAQSSG
1 | Round 2 CD28B6-6 (ligand) ITPKSVTKRVKETVMLSCDYSTSTEELTSLRIYWQKDSKMVLAILPGKVQVWPEYKNRTITDMNDNPRIVILALRLSDKGTYTCVIQKPVLKGAYKLEHLTSVTLSIRADFPVPSITDIGHPAPNVKRIRCSASGGFPEPRLAWMEDGEELNAVNTTVDQDLDTELYSVSSELDFNATNNHSIVCLIKYGELSVSQIFPWSKPKQEPPIDQLPFWVIVPVSGALVLTAVVLYCLACRHVAR
1 | Round 2 CD28D2-3 (ligand) ITPKSVTKRVKETVMLSCDYNTSTEELTSLRIYWQKDSKMVLAILPGKVQVWPEYKNRTITDMNDNPRIVIQALRLSDSGTYTCVIQKPVLKGAYKLEHLASVRLMIRADFPVPTDLGNPSPNIRRLICSTSGGFPRPHLYWLENGEELNATNTTVSQDPGTELYMISSELDFNVTNNHSIVCLIKYGELSVSQIFPWSKPKQEPPIDQLPFWVIIPVSGALVLTAVVLYCLACRHVARWKRTRRNEETVGTERLSPIYLGSAQSSG
1 | Round 2 CD28B4-3 (ligand) ITPKSVTKRVKETVMLSCDYNTSTEELTSLRIYWQKDSKMVLAILPGKVQVWPEYKNRTITDMNDNPRIVILALRLSDSGTYTCVIQKPVLKGAYKLEHLTSVRLMIRADFPVPTINDLGNPSPNIRRLICSTSGGFPRPHLYWLENGEELNATNTTLSQDPETKLYMISSELDFNMTSNHSFLCLVKYGDLTVSQTFYWQESKPTPSANQHLTWTIIIPVSAFGISVIIAVILTCLTCRNAAIRRQRRENEVEMQSCSQSP
1 | Round 2 CD28B6-3 (ligand) ITPKSVTKRVKETVMLSCDYNTSTEELTSLRIYWQKDSKMVLAILPGKVQVWPEYKNRTITDMNDNPRIVILALRLSDSGTYTCVIQKPDLKGAYKLEHLTSVRLMIRADFPVPTINDLGNPSPNIRRLICSTSGGFPRPHLYWLENGEELNATNTTLSQDPETKLYMISSELDFNMTSNHSFLCLVKYGDLTVSQTFYWQESKPTPSANQHLTWTIIIPVSAFGISVIIAVILTCLTCRNAAIRRQRRENEVKMQSCSQSP
0 | Round 2 CD28F3-1 (ligand) ITPKSVTKRVKETVMLSCDYNTSTEELTSLRIYWQKDSKMVLAILPGKVQVWPEYKNRTITDMNDNPRIVILALRLSDSGTYTCVIQKPDLKGAYKLEHLTSVRLMIRADFPVPTINDLGNPSPNIRRLICSTSGGFPRPHLYWLENGKELNATNTTLSQDPETKLYMISSELDFNMTSNHSFLCLVKYGDLTVSQTFYWQESKPTPSANQHLTWTIIIPVSAFGISVIIAVILTCLTCRNAAIRRQRRENEVEMQSCSQSP
0 | Round 2 CD28D5-6 (ligand) ITPKSVTKRVKETVMLSCDYSTSTEELTSLRIYWQKDSKMVLAILPGKVQVWPEYKNRTITDMNDNPRIVILALRLSDSGTYTCVIQKPVLKGAYKLEHLTSVRLMIRADFPVPTINDLGNPSPNIRRLICSTSGGFPRPHLYWLENGEELNATNTTLSQDPETKLYMISSELDFNMTSNHSFLCLVKYGDLTVSQSFYWQESKPTPSANQHLTWTIIIPVSAFGISVIIAVILTCLTCRNAAIRRQRRENEVEMQSCSQSP
0 | Round 2 CD28E8-6 (ligand) ITPKSVTKRVKETVMLSCDYNTSTEELTSLRIYWQKDSKMVLAILPGKVQVWPEYKNRTITDMNDNPRIVILALRLSDSGTYTCVIQKPVLKGAYKLEHLTSVRLMIRADFPVPTINDLGNPSPNIRRLICSTSGGFPRPHLYWLENGEELNATNTTVSQDPETKLYMISSELDFNTTSNHSFLCLVKYGDLTVSQTFYWQESKPTPSANQHLTWTIIIPVSAFGISVIIAVILTCLTCRNAAIRRQRRENEVEMQSCSQSP
0 | Round 2 CD28E2-5* (ligand) TTPKSVTKRVKETVMLSCDYNTSTEELTSLRIYWQKDSKMVLAILPGKVQVWPEYKNRTITDMNDNPRIVILALRPSDSGTYTCVIQKPVLKGAYKLEHLASVRLMIRADFPVPTINDLGNPSPNIRRLICSTSGGFPRPHLYWLENGEELNATNTTLSQDPETKLYMISSELDFNMTSNHSFLCLVKYGDLTVSQTFYWQESKPTPSANQHLTWTIIIPVSAFGISVIIAVILTCLTCRNAAIRRQRRENEVEMQSCSQSP
2 | Round 2 CD28BP-14 (ligand) GISQVTKSVKEMAALSCDYNISIDELARMRIYWQKDQQMVLSIISGQVEVWPEYKNRTITDMNDNPRIVILALRLSDSGTYTCVIQKPVLKGAYKLEHLASVRLMIRADFPVPTINDLGNPSPNIRRLICSTSGGFPRPHLYWLENGEELNATNTTVSQDPGTELYMISSELDFNVTNNHSIVCLIKYGELSVSQIFPWSKPKQEPPIDQLPFWVIIPVSGALVLTAVVLYCLACRHVARWKRTRRNEETVGTERLSPIYLGSAQSSG
1 | Round 2 CD28H11-3 (ligand) ITPKSVTKRVKETVMLSCDYNTSTEELTSLRIYWQKDSKMVLAILPGKVQVWPEYKNRTITDMNDNPRIVILALRLSDSGTYTCVIQKPVLKGAYKLEHLASVRLMIRADFPVPTINDLGNPSPNIRRLICSTSGGFPRPHLYWLENGEELNATNTTLSQDPETKLYMISSELDFNVTNNHSIVCLIKYGELSVSQIFPWSKPKQEPPIDQLPFWVIIPVSGALVLTAAVLYCLACRHVARWKRTRRNEETVGTERLSPIYLGSAQSSG
1 | Round 2 CD28C2-4 (ligand) GISQVTKSVKEMAALSCDYNISIDELARMRIYWQKDQQMVLSIISGQVEVWPEYKNRTITDMNDNPRIVILALRLSDSGTYTCVIQKPVLKGAYKPEHLASVRLMIRADFPVPTINDLGNPSPNIRRLICSTSGGFPRPHLYWLENGEELNATNTTLSQDPETKLYMISSELDFNMTSNHSFLCLVKYGDLTVSQTFYWQESKPTPSANQHLTWTIIIPVSAFGISVIIAVILTCLTCRNAAIRRQRRENEVEMQSCSQSP
